The values below are quoted from earlier work in publication PMC9694239.

The target of the series is CNG channel beta subunit CaM1 peptide CaM1 (Homo sapiens) (UniProt Q14028).
Chain of CNG channel beta subunit CaM1 peptide CaM1 (Homo sapiens) (Q14028 whole entry, looked up, tested part not stated): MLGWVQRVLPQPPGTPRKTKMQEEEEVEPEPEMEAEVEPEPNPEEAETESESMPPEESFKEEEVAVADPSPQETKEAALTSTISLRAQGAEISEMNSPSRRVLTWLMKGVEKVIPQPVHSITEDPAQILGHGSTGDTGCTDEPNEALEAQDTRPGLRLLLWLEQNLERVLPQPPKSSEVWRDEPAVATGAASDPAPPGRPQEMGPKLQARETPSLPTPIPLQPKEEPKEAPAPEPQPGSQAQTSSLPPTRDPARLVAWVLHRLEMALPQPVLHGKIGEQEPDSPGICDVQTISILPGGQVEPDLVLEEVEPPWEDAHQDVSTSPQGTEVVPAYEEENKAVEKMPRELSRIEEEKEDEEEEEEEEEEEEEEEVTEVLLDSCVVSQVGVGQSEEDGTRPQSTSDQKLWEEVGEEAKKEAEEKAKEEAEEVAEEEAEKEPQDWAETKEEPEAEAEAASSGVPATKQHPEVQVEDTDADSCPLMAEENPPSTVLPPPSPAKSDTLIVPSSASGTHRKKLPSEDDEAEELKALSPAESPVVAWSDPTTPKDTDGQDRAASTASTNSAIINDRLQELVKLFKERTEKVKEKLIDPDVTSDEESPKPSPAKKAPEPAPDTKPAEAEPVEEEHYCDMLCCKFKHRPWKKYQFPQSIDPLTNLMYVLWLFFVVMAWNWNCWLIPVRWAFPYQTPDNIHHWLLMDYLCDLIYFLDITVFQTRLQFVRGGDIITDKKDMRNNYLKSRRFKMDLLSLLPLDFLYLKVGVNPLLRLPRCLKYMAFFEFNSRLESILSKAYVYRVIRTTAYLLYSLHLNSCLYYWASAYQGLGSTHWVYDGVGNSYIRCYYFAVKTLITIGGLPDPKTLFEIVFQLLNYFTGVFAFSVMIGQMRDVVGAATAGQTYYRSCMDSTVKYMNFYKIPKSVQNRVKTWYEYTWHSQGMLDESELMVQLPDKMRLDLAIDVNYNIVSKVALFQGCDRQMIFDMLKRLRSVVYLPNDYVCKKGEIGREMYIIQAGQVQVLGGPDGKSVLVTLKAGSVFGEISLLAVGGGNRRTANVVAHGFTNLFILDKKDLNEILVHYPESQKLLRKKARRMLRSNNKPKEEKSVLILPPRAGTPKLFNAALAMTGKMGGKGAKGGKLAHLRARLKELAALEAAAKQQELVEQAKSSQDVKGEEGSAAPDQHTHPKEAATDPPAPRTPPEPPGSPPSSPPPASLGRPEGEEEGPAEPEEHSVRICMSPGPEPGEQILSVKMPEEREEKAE

For Calmodulin N-lobe (from UniProt P0DP23), the dissociation constant (Kd) (commonly the equilibrium constant for the complex coming apart) was 5 µM.
